# Results taken from publication PMC3747146 (PLoS ONE, 2013).
# Numbering of substitutions follows the chain as printed. In names and notes the source's numbering stands.
# B1: MALT1(ΔNT), wildtype protease domain and C-terminal extension (aa 333-824) (domain or fragment, UniProt Q9UDY8 333-824, looked up)
# chain: QTTDQPLAKDKVALLIGNMNYREHPKLKAPLVDVYELTNLLRQLDFKVVSLLDLTEYEMRNAVDEFLLLLDKGVYGLLYYAGHGYENFGNSFMVPVDAPNPYRSENCLCVQNILKLMQEKETGLNVFLLDMCRKRNDYDDTIPILDALKVTANIVFGYATCQGAEAFEIQHSGLANGIFMKFLKDRLLEDKKITVLLDEVAEDMGKCHLTKGKQALEIRSSLSEKRALTDPIQGTEYSAESLVRNLQWAKAHELPESMCLKFDCGVQIQLGFAAEFSNVMIIYTSIVYKPPEIIMCDAYVTDFPLDLDIDPKDANKGTPEETGSYLVSKDLPKHCLYTRLSSLQKLKEHLVFTVCLSYQYSGLEDTVEDKQEVNVGKPLIAKLDMHRGLGRKTCFQTCLMSNGPYQSSAATSGGAGHYHSLQDPFHGVYHSHPGNPSNVTPADSCHCSRTPDAFISSFAHHASCHFSRSNVPVETTDEIPFSFSDRLRISEK
# notes: MALT1 (paracaspase), protease domain and C-terminal extension, aa 333-824; also called ΔNT construct; source: E. coli BL21, GST fusion purified on glutathione-Sepharose, released with PreScission enzyme
# B2: MALT1(ΔNT) E549A, protease domain and C-terminal extension (aa 333-824) (domain or fragment, UniProt Q9UDY8 333-824, looked up)
# chain: B1 chain with E217A
# notes: MALT1 (paracaspase), protease domain and C-terminal extension, aa 333-824, with E549A; source: E. coli BL21, GST fusion purified on glutathione-Sepharose, released with PreScission enzyme
# B3: MALT1(Casp-like), wildtype isolated protease domain (aa 333-566) (domain or fragment, UniProt Q9UDY8 333-566, looked up)
# chain: QTTDQPLAKDKVALLIGNMNYREHPKLKAPLVDVYELTNLLRQLDFKVVSLLDLTEYEMRNAVDEFLLLLDKGVYGLLYYAGHGYENFGNSFMVPVDAPNPYRSENCLCVQNILKLMQEKETGLNVFLLDMCRKRNDYDDTIPILDALKVTANIVFGYATCQGAEAFEIQHSGLANGIFMKFLKDRLLEDKKITVLLDEVAEDMGKCHLTKGKQALEIRSSLSEKRALTDPIQG
# notes: MALT1 (paracaspase), isolated protease (caspase-like) domain, aa 333-566; also called Casp-like construct; MALT1 caspase-like domain; source: E. coli BL21, GST fusion purified on glutathione-Sepharose, released with PreScission enzyme
# Biological target: the molecule itself
# Test: SEC; Superdex 200 on an ÄKTA FPLC at 4°C, PBS with 10% glycerol (pH 7.4), flow 0.35 ml/min; recombinant proteins released from GST with PreScission
Protein,binding result,stoichiometry N
B1,binds,
B2,binds,
B3,,2
